# Laboratory results: paper PMC4109836, “Analysis of the co-operative interaction between the allosterically regulated proteins GK and GKRP using tryptophan fluorescence” (Biochemical Journal, 2014)
# Changes are numbered by the printed parent chain. Numbers in names are those of the source. Like-named read-outs stand apart in the source and are kept apart here.
# T1: GKRP-P446L (Homo sapiens, UniProt Q14397, P446L)
# T1 construct: FLAG; made in house; host or cells: Escherichia coli
# T1 sequence (Q14397 1-625 P446L): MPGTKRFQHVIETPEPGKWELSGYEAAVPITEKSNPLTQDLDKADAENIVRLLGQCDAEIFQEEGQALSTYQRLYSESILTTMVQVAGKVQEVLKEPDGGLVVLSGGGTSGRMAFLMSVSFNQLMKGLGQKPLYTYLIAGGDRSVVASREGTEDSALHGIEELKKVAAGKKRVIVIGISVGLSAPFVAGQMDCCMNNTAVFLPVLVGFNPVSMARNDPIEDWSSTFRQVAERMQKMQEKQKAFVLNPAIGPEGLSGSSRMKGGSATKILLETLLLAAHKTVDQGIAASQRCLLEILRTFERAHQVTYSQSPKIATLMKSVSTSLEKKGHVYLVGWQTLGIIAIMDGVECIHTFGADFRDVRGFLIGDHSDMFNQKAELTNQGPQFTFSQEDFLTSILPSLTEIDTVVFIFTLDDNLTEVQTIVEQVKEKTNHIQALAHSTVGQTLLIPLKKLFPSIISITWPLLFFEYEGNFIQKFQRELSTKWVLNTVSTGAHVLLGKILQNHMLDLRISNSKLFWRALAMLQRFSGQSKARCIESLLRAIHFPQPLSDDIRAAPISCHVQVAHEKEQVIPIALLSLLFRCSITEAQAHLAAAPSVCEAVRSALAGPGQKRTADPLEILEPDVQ
# T2: GKRP-WT (Homo sapiens, UniProt P35557+Q14397, W167F/W257F/W99R)
# T2 construct: FLAG; GST (cleaved yes); made in house; host or cells: Escherichia coli
# T2 sequence (Q14397 1-625): T1 sequence (Q14397 1-625 P446L) with L446P
# T2 sequence (P35557 1-465 W99R/W167F/W257F): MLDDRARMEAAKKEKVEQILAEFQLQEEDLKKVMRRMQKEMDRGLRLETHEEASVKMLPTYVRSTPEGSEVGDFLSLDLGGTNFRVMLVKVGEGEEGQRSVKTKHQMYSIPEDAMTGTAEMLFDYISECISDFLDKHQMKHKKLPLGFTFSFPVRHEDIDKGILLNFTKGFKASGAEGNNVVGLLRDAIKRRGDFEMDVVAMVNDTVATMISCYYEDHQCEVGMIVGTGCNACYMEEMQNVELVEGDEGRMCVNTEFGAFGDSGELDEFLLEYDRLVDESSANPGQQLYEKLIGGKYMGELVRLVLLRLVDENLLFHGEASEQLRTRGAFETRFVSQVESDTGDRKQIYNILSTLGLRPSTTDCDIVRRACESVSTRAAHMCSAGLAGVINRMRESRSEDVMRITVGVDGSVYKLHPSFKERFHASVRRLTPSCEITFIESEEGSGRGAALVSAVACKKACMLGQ
# B1: GK-W99R/W167F/W257F: tryptophan residue-free, non-fluorescent recombinant human β-cell GK made for the present study (protein)
# chain: T2 sequence (P35557 1-465 W99R/W167F/W257F)
# modifications: left off: GST, end not stated, cleaved
# notes: tryptophan residue-free, non-fluorescent recombinant human β-cell GK made for the present study
# Legend:
# GKRP-P446L = biological target: T1, GKRP-P446L; assay: Ligand binding to free GKRP-P446L measured by TF of GKRP
# GKRP-WT = biological target: T2, GKRP-WT; assay: Titration of GKRP-WT with GK-W99R/W167F/W257F (GK–GKRP complex assembly) by TF; format: binding; conditions: for Kd: read-out: S0.5 of GK;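 for all read-outs here: tryptophan fluorescence of GKRP titrated with GK, excitation 295 nm, emission read at 340 nm, phosphate buffer pH 7.2, Hill equation fitting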
# [1] = 0.3 μM GKRP-P446L, ligand alone, 20°C
# [2] = GK titration with 20 μM GKA, 20°C
# [3] = GK titration with 500 μM F1P, 20°C
# [4] = GK titration with 500 μM F6P, sigmoidal fit, 20°C
# [5] = GK titration with 500 μM F6P, simple saturation fit (H = 1)
# [6] = GK titration with 100 mM D-glucose and 20 μM GKA, 20°C
# [7] = GK titration with 100 mM D-glucose and 500 μM F1P, 20°C
# [8] = GK titration with 100 mM D-glucose and 500 μM F6P, 20°C
# [9] = GK titration with 100 mM D-glucose, 20°C
# [10] = GK titration, no further agent, sigmoidal fit, 20°C
# [11] = GK titration, no further agent, simple saturation fit (H = 1)
molecule,measurement,setting,value
"OC[C@H]1OC(O)[C@H](O)[C@@H](O)[C@@H]1O (stereo partly drawn) [D-Glucose, D-glucose]",Kd,"GKRP-P446L; 0.3 μM GKRP-P446L, D-glucose alone, 20°C, read-out: S0.5",27000 µM
same,H (Hill number),GKRP-P446L; [1],1.49
same,ΔF (relative fluorescence change at 340 nm),GKRP-P446L; [1],−0.06
same,effect on the TF signal of GKRP-P446L,GKRP-P446L; ligand alone,lowered the TF signal
B1,H,GKRP-WT; [2],3.4
same,ΔF,GKRP-WT; [2],0.42
same,Kd,GKRP-WT; [2],2.77 µM
same,H,GKRP-WT; [3],2.8
same,ΔF,GKRP-WT; [3],0.32
same,Kd,GKRP-WT; [3],2.68 µM
same,H,GKRP-WT; [4],1.71
same,ΔF,GKRP-WT; [4],0.31
same,Kd,GKRP-WT; [4],1.2 µM
same,H,"GKRP-WT; GK titration with 500 μM F6P, simple saturation fit",1
same,ΔF,GKRP-WT; [5],0.43
same,Kd,GKRP-WT; [5],1.84 µM
same,H,GKRP-WT; [6],3.2
same,ΔF,GKRP-WT; [6],0.42
same,Kd,GKRP-WT; [6],4.75 µM
same,H,GKRP-WT; [7],2.25
same,Kd,GKRP-WT; [7],3.3 µM
same,H,GKRP-WT; [8],2.83
same,ΔF,GKRP-WT; [8],0.35
same,Kd,GKRP-WT; [8],2.43 µM
same,H,GKRP-WT; [9],2.78
same,ΔF,GKRP-WT; [9],0.42
same,Kd,GKRP-WT; [9],2.56 µM
same,H,GKRP-WT; [10],1.74
same,ΔF,GKRP-WT; [10],0.29
same,Kd,"GKRP-WT; GK titration, no further agent, sigmoidal fit, 20°C, listed as GK",~1.2 µM
same,Kd,GKRP-WT; [10],1.22 µM
same,H,"GKRP-WT; GK titration, no further agent, simple saturation fit",1
same,ΔF,GKRP-WT; [11],0.39
same,Kd,GKRP-WT; [11],1.85 µM
same,maximal ΔTF value of GKRP-WT,GKRP-WT; range depending on the assay conditions,0.29–0.42
same,increase of the TF of GKRP-WT,"GKRP-WT; saturating GK (5 μM), 0.3 μM GKRP",29%
same,S0.5 value of GK with GKRP-WT lower than with GKRP-P446L (on average),GKRP-WT; with and without F6P,35%
